Reference: patent publication US20220031813A1, “INHIBITOR OF EXTRACELLULAR TRAP FORMATION IN LEUKOCYTES” (priority 2013, published 2022)

Tests used:
human neutrophils [1] = assay: Rate of NETs formation in PMA-stimulated neutrophils after pre-treatment, counted by confocal microscopy; assay type: cell-based
[2] = tested on: histone-induced thrombus (DIC) model mice; assay: Survival rate/lifetime extension of histone-induced thrombus (DIC) model mice; assay type: in vivo, mouse; details: 20 mg/kg i.v. 30 minutes before histone 80 mg/kg, n=8; control: one alive; p=0.0005
Experimental: 80 mg/kg of histone (sigma, H9250) dissolved in physiological saline and left at 37° C. was intravenously administered to the tails of 11 week old male C57BL/6 mice to create DIC model mice (Tobias A. et al., blood, 29 Sep. 2011, vol. 118, no. 13, pp. 3708-3714). As a pre-treatment, 20 mg/kg of bovine lactoferrin was intravenously administered to the tails of the mice, and 30 minute later, histone was intravenously administered to the tails of the mice (n=8). These mice were labeled as a group of mice provided with therapy with lactoferrin. To the tails of different mice (n=8), 100 μl of physiological saline not containing bovine lactoferrin was intravenously administered, and 30 minutes later, histone was intravenously administered. These mice were labeled as a control group of mice provided with no therapy. The survival rate/lifetime extension after the administration of histone was evaluated by use of the Kaplan-Meier method. The control group of mice provided with no therapy gradually started to die about 20 minutes after the administration of histone. Two days later, two mice were alive, and 4 days later, one mouse was alive. By contrast, the 8 mice in the group provided with therapy with bovine lactoferrin were all alive even 4 days later. […]

[3] = tested on: histone-induced thrombus model mice; assay: Bleeding time duration in histone-induced thrombus model mice; assay type: in vivo, mouse; details: 20 mg/kg i.v. 30 minutes before histone 60 mg/kg, n=5, vs no therapy; p<0.0001
Experimental: As a pre-treatment, 20 mg/kg of bovine lactoferrin was intravenously administered to the tails of 11 week old male C57BL/6 mice, and 30 minute later, 60 mg/kg of histone (sigma, H9250) dissolved in physiological saline and left at 37° C. was intravenously administered to the tails of the mice to check the effect of hemostasis on the DIC model mice (n=5) (Tobias A, et al., Blood, 2011; 118: pp. 3708-3714) (75% of the amount of histone used for improving the survival rate/lifetime extension was adopted). For control group mice without therapy (n=5), 100 μl of physiological saline not containing bovine lactoferrin was intravenously administered to the tails 30 minutes before the administration of histone. For healthy control mice (n=5), physiological saline, instead of the bovine lactoferrin used for the pre-treatment and also instead of histone, was administered. Twenty minutes after the administration of histone, the vein of the tail of each mouse was cut at a position 3 mm from the end, and immersed in a 37° C. physiological saline. At every 30 seconds, the blood was wiped off with a filter paper, and the bleeding time duration was measured (in the case where the bleeding time duration was 15 minutes or longer, the bleeding time duration was recorded as 15 minutes and a hemostasis treatment was performed) (Fuchs T A, et al., Blood, 2011; 118:3708-3714).

[4] = tested on: histone-induced thrombus model mice; assay: Bleeding in lung tissues of histone-induced thrombus model mice; assay type: in vivo, mouse; details: 20 mg/kg i.v. 30 minutes before histone 80 mg/kg, n=4, ten minutes after histone
Experimental: As a pre-treatment, 20 mg/kg of bovine lactoferrin was intravenously administered to the tails of 11 week old male C57BL/6 mice, and 30 minute later, 80 mg/kg of histone (sigma, H9250) dissolved in physiological saline and left at 37° C. was intravenously administered to tails of the mice to create DIC model mice (n=4) (Tobias A., et al., Blood, 29 Sep. 2011; vol. 118: no. 13, pp. 3708-3714). For control group mice with no therapy (n=4), 100 μl of physiological saline not containing bovine lactoferrin was intravenously administered to the tails 30 minutes before histone was intravenously administered. For healthy control group mice (n=4), physiological saline, instead of the bovine lactoferrin used for the pre-treatment and also instead of histone, was administered. Ten minutes after the administration of histone (second administration of physiological saline), the mice were put to euthanasia. Lung tissues were extracted and immobilized by use of 4% paraformaldehyde.

human neutrophils [5] = assay: Specificity experiment: inhibition of NETs formation by DNA concentration in the culture supernatant; assay type: cell-based; details: n=3, p<0.01, FIG. 10
Experimental: About 1 hour after the isolation of the neutrophils described in “1. Method of isolating human neutrophils” in Example 2, the neutrophils were pre-treated. On an 8-well microslide (Cat. No. ib 80826 Ibidi (registered trademark)), the neutrophils were seeded in 400 μl of culture DMEM+2% human serum Alb (serum human albumin; Product No. A9080 Sigma+4 mM L-glutamine) at a rate of about 1.0×10^5 cells/well, and stimulated with PMA (final concentration: 25 nM, stock: 10 mM in DMSO, Sigma Prod No. P8139). At thirty minutes before the stimulation, and at every one hour or every two hours after the stimulation, 200 μg/ml of human lactoferrin (stock: 100 mg/ml, 200 μl; Cat. No. SIGL6793, SIGMA) was added to perform inhibition [FIG. 2].
The culture supernatant was recovered and centrifuged at 200×g for 10 minutes, and the supernatant was transferred to a new microscopic centrifuge tube. The DNA amount was measured by use of Picogreen dsDNA assay reagent (P11496 Invitrogen) in accordance with an accompanying protocol. Treatment with human lactoferrin at one hour and two hours after the stimulation was a similar effect to the prior pre-treatment, the DNA concentration in the culture supernatant decreased, resulting in suppression of the release of the DNAs by the NETs [FIG. 2]. […]

[6] = bovine proteins; cited from earlier work

B1: bovine lactoferrin: bovine lactoferrin (Product No. 123-04124 WAKO); in Example 9 eluted from crude bovine milk protein; cow lactoferrin SEQ ID NO 2 (protein, listed as Bos taurus)
chain: MKLFVPALLSLGALGLCLAAPRKNVRWCTISQPEWFKCRRWQWRMKKLGAPSITCVRRAFALECIRAIAEKKADAVTLDGGMVFEAGRDPYKLRPVAAEIYGTKESPQTHYYAVAVVKKGSNFQLDQLQGRKSCHTGLGRSAGWIIPMGILRPYLSWTESLEPLQGAVAKFFSASCVPCIDRQAYPNLCQLCKGEGENQCACSSREPYFGYSGAFKCLQDGAGDVAFVKETTVFENLPEKADRDQYELLCLNNSRAPVDAFKECHLAQVPSHAVVARSVDGKEDLIWKLLSKAQEKFGKNKSRSFQLFGSPPGQRDLLFKDSALGFLRIPSKVDSALYLGSRYLTTLKNLRETAEEVKARYTRVVWCAVGPEEQKKCQQWSQQSGQNVTCATASTTDDCIVLVLKGEADALNLDGGYIYTAGKCGLVPVLAENRKSSKHSSLDCVLRPTEGYLAVAVVKKANEGLTWNSLKDKKSCHTAVDRTAGWNIPMGLIVNQTGSCAFDEFFSQSCAPGADPKSRLCALCAGDDQGLDKCVPNSKEKYYGYTGAFRCLAEDVGDVAFVKNDTVWENTNGESTADWAKNLNREDFRLLCLDGTRKPVTEAQSCHLAVAPNHAVVSRSDRAAHVKQVLLHQQALFGKNGKNCPDKFCLFKSETKNLLFNDNTECLAKLGGRPTYEEYLGTEYVTAIANLKKCSTSPLLEACAFLTR
Human neutrophils [1]; pre-treatment 2 μg/ml for 30 minutes, then PMA 25 nM
  rate of the NETs formed at plateau, compared with stimulation merely with PMA: half
Human neutrophils [1]; pre-treatment 20 μg/ml for 30 minutes, then PMA 25 nM
  rate of the NETs formed at plateau, compared with stimulation merely with PMA: half
Human neutrophils [1]; pre-treatment 200 μg/ml for 30 minutes, then PMA 25 nM
  formation of the NETs at plateau, compared with stimulation merely with PMA: ¼
Human neutrophils [1]; pre-treatment with 2, 20 or 200 μg/ml, FIG. 1-A, 1-B
  inhibitory effect on the formation of the NETs: concentration-dependent manner
[2]
  mice alive 4 days after histone: 8 mice
[3]
  bleeding time duration: significantly shorter
[4]
  bleeding in lung tissues: not observed to bleed almost at all
Human neutrophils [5]
  inhibition of the formation of the NETs: inhibited
[6]
  Isoelectric point: 8.2-8.9
